Source: WO2022196697A1 (dated 2022)

B1: AOL (Aspergillus oryzae lectin) (other, UniProt Q2UNX8 1-311, looked up)
chain: MSTPGAQEVLFRTGIAAVNSTNHLRVYFQDSHGSIRESLYESGWANGTAKNVIAKAKLGTPLAATSKELKNIRVYSLTEDNVLQEAAYDSGSGWYNGALAGAKFTVAPYSRIGSVFLAGTNALQLRIYAQKTDNTIQEYMWNGDGWKEGTNLGVALPGTGIGVTCWRYTDYDGPSIRVWFQTDNLKLVQRAYDPHTGWYKELTTIFDKAPPRCAIAATNFNPGKSSIYMRIYFVNSDNTIWQVCWDHGQGYHDKRTITPVIQGSEIAIISWEGPELRLYFQNGTYVSAISEWTWGKAHGSQLGRRALPPAE
notes: also called biotinylated AOL
B2: AAL (Aleuria aurantia lectin) (other, UniProt P18891 2-313, looked up)
chain: PTEFLYTSKIAAISWAATGGRQQRVYFQDLNGKIREAQRGGDNPWTGGSSQNVIGEAKLFSPLAAVTWKSAQGIQIRVYCVNKDNILSEFVYDGSKWITGQLGSVGVKVGSNSKLAALQWGGSESAPPNIRVYYQKSNGSGSSIHEYVWSGKWTAGASFGSTVPGTGIGATAIGPGRLRIYYQATDNKIREHCWDSNSWYVGGFSASASAGVSIAAISWGSTPNIRVYWQKGREELYEAAYGGSWNTPGQIKDASRPTPSLPDTFIAANSSGNIDISVFFQASGVSLQQWQWISGKGWSIGAVVPTGTPAGW
notes: also called AAL lectin

Columns and labels:
[1] = molecular target: T1, HER2 immunoprecipitated from the membrane fraction of cardiomyocytes (human, UniProt P04626 23-1255); assay: lectin blot of immunoprecipitated HER2 after electrophoresis (legend of Fig. 3)
T1 construct: also called cardiomyocyte-derived HER2; myocardial cell-derived HER2

[2] = molecular target: T2, HER2 immunoprecipitated from the membrane fraction of HER2-type breast cancer cells (HER2 solution) (human, UniProt P04626 23-1255, glycosylated; also tested after PNGase F treatment); assay: lectin array with immunoprecipitated HER2, with and without PNGase F; confirmed by Western and lectin blotting
T2 construct: Not fractionated by lectin; also called breast cancer cell-derived HER2; unfractionated HER2

Row | Binder | binding result [1] | binding result [2]
1 | B1 | binds | binds
2 | B2 | binds | binds
